{
  "source": "paper doi:10.1101/2025.11.10.687665",
  "molecular_target": "streptavidin 2 (Sav2) (Streptomyces avidinii)",
  "data": [
    {"substance": "streptavidin 2 (Sav2) (domain or fragment)", "values": [
      {"measurement": "stoichiometry N", "value": 4}
    ]}
  ]
}
